How the values were obtained:
[1] = test system: target cell lines expressing a non-secretory form of a luciferase; test: Assay for cytotoxic activity (Matador assay, luciferase release); type: cell-based; conditions: TRAC-targeted T cells, versus construct SEQ ID NO: 23329
Method: Cell lines engineered to express luciferases (e.g., GLuc or NLuc) for measuring cytotoxicity of different constructs targeting different cell surface and intracellular antigens are provided in Table C-1. Cells were cultured at 37° C., in a 5% CO2 humidified incubator. The cell lines were obtained from ATCC, NIH AIDS reagent program or were available in the laboratory.
The generation of Chimeric antigen receptor (e.g., 2nd generation CARs, SIRs, Ab-TCR and TFP etc.), the generation and use of GGS-NLuc fusion proteins (Topanga and Malibu-Glo assays), and the generation and use of luciferase (e.g., GLuc) reporter cell lines for measurement of cellular cytotoxicity using the Matador assays have been described (PCT/US2017/024843, PCT/US2017/025602, PCT/US2017/052344, PCT/US2017/064379 and PCT/US2018/53247).
(C) Assay for Cytotoxic Activity in vitro and in vivo: The uninfected T cells or those expressing a control vector or SAR are cocultured with the target cell lines expressing a non-secretory form of a luciferase (such as GLuc, NLuc, Turboluc 16 etc.) for 4-96 hours and induction of cell lysis examined by measuring the luciferase activity as described in PCT/US17/52344.

target cells = test: Xenograft model in immunodeficient mice; type: in vivo; conditions: TRAC-targeted T cells, versus construct SEQ ID NO: 23329
From the text: Animal models can also be used to measure SAR activity. For example, xenograft model using human cancer associated antigen described herein-specific SAR^+ T cells to treat a primary human pre-B-ALL in immunodeficient mice can be used. Dose dependent SAR treatment response can be evaluated. See, e.g., Milone et al., Molecular Therapy 17(S): 1453-1464 (2009). Assessment of cell proliferation and cytokine production has been previously described, e.g., at Milone et al., Molecular Therapy 17(S): 1453-1464 (2009). Cytotoxicity can be assessed by a standard ^51Cr-release assay or Matador assay. Imaging technologies can be used to evaluate specific trafficking and proliferation of SIRs in tumor-bearing animal models.
The cells expressing the SAR constructs are exposed to RAJI and L363 target cells and tested in functional assays as described above. […] It is also observed that co-expression of the constant chains of both TCRγ and TCRδ can also rescue the expresson of SARs on TFP backbone in αβ T cells in which the expression of endogeneous TCRα and/or TCRβ constant chains has been eliminated by insertion of the SAR expresson cassette at the endogenous TRAC or/and TRBC loci. Exemplary constructs to express TCRγ and TCRδ chains are provided in SEQ ID NO: 23333 and 23334, respectively.

[2] = test system: Raji cells expressing a membrane anchored scFv targeting Dsg3; test: JNG assay, co-culture with Raji cells expressing a membrane anchored scFv targeting Dsg3; type: cell-based; conditions: compared to parental Raji cells
Method: Cellular supernatant is collected and assayed for the induction of cytokines (e.g., IL2).
JNG (Jurkat cells expressing EGFP under an NFAT promoter) were infected with lentiviral vectors encoding different single chain and multi-chain SARs by spinfection in the presence of 8 µg/ml of Polybrene® (Sigma, Catalog no. H9268). The Jurkat-NFAT-GFP cells are engineered in such a way that the IL-2 promoter, which carries NFAT binding sites, is cloned upstream of the GFP gene. These cells have been used to study signaling via TCR and CAR. The different SARs were stably expressed in Jurkat NFAT-GFP cells by lentiviral mediated gene transfer, followed by selection with puromycin or blasticidin. No drug selection was used in case the construct lacked an antibiotic resistance gene. […] GFP expression was monitored by FACS analysis. […] The structure of different constructs can be determined based on their names. […] The sequence of the other constructs in the table can be similarly determined from their names and by referring to the different Tables of this disclosure that provide the names and SEQ ID NO of the different modules. Alternatively, the composition and modular architecture of the different SAR constructs can be determined from their sequences by bioinformatics tools, including using nucleic acid and amino acids homology searches. […]

RAJI cells = test: JNG (Jurkat NFAT-GFP) cells expressing SAR: GFP induction on co-culture with RAJI
L363 (BCMA+) cells = type: cell-based

B1: SEQ ID NO: 23330: targeting construct coexpressing a TCRα constant chain with a SAR on TFP backbone targeting BCMA and CD22, directed to the TRAC locus (protein)
chain: FKIPIEELEDRVFVNCNTSITWVEGTVGTLLSDITRLDLGKRILDPRGIYRCNGTDIYKDKESTVQVHYRMCQSCVELDPATVA
[1]
  cytotoxicity: greater
Target cells
  in vivo anti-tumor activity against the target cells: greater

B2: CD8SP-Dsg3-EC1-EC2-L693-IgCL-TCRb-wt2-opt-6MD-F-P2A-IgHSP-CD20-vHH2-HCD25-G4S-CD19-hu-mROO5-1-vH-IgG1-CH1-TCRa-wt2-opt-6MD-F-F2A-PAC (protein)
chain: MALPVTALLLPLALLLHAARPACEWVKFAKPCREGEDNSKRNPIAKITSDYQATQKITYRISGVGIDQPPFGIFVVDKNTGDINITAIVDREETPSFLITCRALNAQGLDVEKPLILTVKILDINDNPPVFSQQIFMGEIEENSASNSLVMILNATDADEPNHLNSKIAFKIVSQEPAGTPMFLLSRNTGEVRTLTNSLDREQASSYRLVVSGADKDGEGLSTQCECNIKVKDVNDNFPMFRDSLEGQPKANPTVTLFPPSSEELQANKATLVCLISDFYPGAVTVAWKADGSPVKAGVETTKPSKQSNNKYAASSYLSLTPEQWKSHRSYSCQVTHEGSTVEKTVAPTECSGRADCGFTSESYQQGVLSATILYEILLGKATLYAVLVSALVLMAMVKRKDSRGRAKRSGSGATNFSLLKQAGDVEENPGPTSATMDWIWRILFLVGAATGAHSGPQVQLQESGGGLAQAGGSLRLSCAASGRTFSMGWFRQAPGKEREFVAAITYSGGSPYYASSVRGRFTISRDNAKNTVYLQMNSLKPEDTAVYYCAANPTYGSDWNAENWGQGTQVTVSSGSGGGGSGGGGSGGGGSFEQVQLQQPGAELVKPGASVKMSCKASGYAFSSYWINWMKQKPGQGLEWIGQIYPGDGDTNYNGKFKGRATLTADTSSSTAYMQLSSLTSEDSAVYFCARSITTVVGCAMDYWGQGTSVTVSSTRASTKGPSVFPLAPSSKSTSGGTAALGCLVKDYFPEPVTVSWNSGALTSGVHTFPAVLQSSGLYSLSSVVTVPSSSLGTQTYICNVNHKPSNTKVDKRVEPKSCIPEDTFFPSPESSCDVKLVEKSFETDTNLNFQNLSVIGFRILLLKVAGFNLLMTLRLWSSRAKRSGSGVKQTLNFDLLKLAGDVESNPGPSRGHMTEYKPTVRLATRDDVPRAVRTLAAAFADYPATRHTVDPDRHIERVTELQELFLTRVGLDIGKVWVADDGAAVAVWTTPESVEAGAVFAEIGPRMAELSGSRLAAQQQMEGLLAPHRPKEPAWFLATVGVSPDHQGKGLGSAVVLPGVEAAERAGVPAFLETSAPRNLPFYERLGFTVTADVEVPEGPRTWCMTRKPGA
[2]
  GFP induction: increased GFP induction

B3: 6821 (protein)
chain: MALPVTALLLPLALLLHAARPQLQLQESGPGLVKPSETLSLTCTVSGDSISSGDYYWGWIRQPPGKGLEWIGHIYYSGVTYYNPSLKSRVTISVDTSRNQFSLKLSSVTAADTAVYYCTREDSSNWRSRGQGTLVTVSSLEGQPKANPTVTLFPPSSEELQANKATLVCLISDFYPGAVTVAWKADGSPVKAGVETTKPSKQSNNKYAASSYLSLTPEQWKSHRSYSCQVTHEGSTVEKTVAPTECSPIKTDVITMDPKDNCSKDANDTLLLQLTNTSAYYMYLLLLLKSVVYFAIITCCLLRRTAFCCNGEKSRAKRSGSGATNFSLLKQAGDVEENPGPTSMDWIWRILFLVGAATGAHSFEVQLLESGGGLIQPGGSLRLSCAASGFTFSSHAMTWVRQAPGKGLEWVSAISGSGDYTHYADSVKGRFTISRDNSKNTVYLQMNSLRAEDSAVYYCAKDEDGGSLLGHRGQGTLVTVSSTRASTKGPSVFPLAPSSKSTSGGTAALGCLVKDYFPEPVTVSWNSGALTSGVHTFPAVLQSSGLYSLSSVVTVPSSSLGTQTYICNVNHKPSNTKVDKRVEPKSCEVKTDSTDHVKPKETENTKQPSKSCHKPKAIVHTEKVNMMSLTVLGLRMLFAKTVAVNFLLTAKLFFLRAKRSGSGVKQTLNFDLLKLAGDVESNPGPSRGHMTEYKPTVRLATRDDVPRAVRTLAAAFADYPATRHTVDPDRHIERVTELQELFLTRVGLDIGKVWVADDGAAVAVWTTPESVEAGAVFAEIGPRMAELSGSRLAAQQQMEGLLAPHRPKEPAWFLATVGVSPDHQGKGLGSAVVLPGVEAAERAGVPAFLETSAPRNLPFYERLGFTVTADVEVPEGPRTWCMTRKPGA
modifications: Synthetic Polynucloetide
RAJI cells
  GFP expression on co-culture with RAJI: strongly induced GFP expression
L363 (BCMA+) cells
  GFP expression on co-culture with L363 (BCMA+): strongly induced GFP expression
